Measured values taken from paper PMC2289762 (The Journal of Cell Biology, 1992).

Molecular target: the molecule itself
Experiment: cross-linking

B1: centromere protein B (CENP-B), full-size, from HeLa nuclei (natural protein)
chain: MGPKRRQLTFREKSRIIQEVEENPDLRKGEIARRFNIPPSTLSTILKNKRAILASERKYGVASTCRKTNKLSPYDKLEGLLIAWFQQIRAAGLPVKGIILKEKALRIAEELGMDDFTASNGWLDRFRRRHGVVSCSGVARARARNAAPRTPAAPASPAAVPSEGSGGSTTGWRAREEQPPSVAEGYASQDVFSATETSLWYDFLPDQAAGLCGGDGRPRQATQRLSVLLCANADGSEKLPPLVAGKSAKPRAGQAGLPCDYTANSKGGVTTQALAKYLKALDTRMAAESRRVLLLAGRLAAQSLDTSGLRHVQLAFFPPGTVHPLERGVVQQVKGHYRQAMLLKAMAALEGQDPSGLQLGLTEALHFVAAAWQAVEPSDIAACFREAGFGGGPNATITTSLKSEGEEEEEEEEEEEEEEGEGEEEEEEGEEEEEEGGEGEELGEEEEVEEEGDVDSDEEEEEDEESSSEGLEAEDWAQGVVEAGGSFGAYGAQEEAQCPTLHFLEGGEDSDSDSEEEDDEEEDDEDEDDDDDEEDGDEVPVPSFGEAMAYFAMVKRYLTSFPIDDRVQSHILHLEHDLVHVTRKNHARQAGVRGLGHQS
stoichiometry N: 2
